Our source for the Kd, koff and kon values is US20110104788A1.

Read-outs that look alike come from different tables or passages of the source.

The target of test [1] is human coagulation factor X (FX), full-length zymogen (human) (UniProt P00742). Description: SPR (Biacore T100); human FX immobilised on CM5 chip, inhibitor injected; heterogeneous ligand model.
Test [2] deals with mouse coagulation factor X (mouse) (UniProt O88947). Description: SPR (Biacore T100); mouse FX immobilised on CM5 chip, inhibitor injected; heterogeneous ligand model.
In test [3] the target is human coagulation factor X (FX), full-length zymogen (human) (UniProt P00742).

Chain of mouse coagulation factor X (mouse) (O88947 41-481 limits assumed): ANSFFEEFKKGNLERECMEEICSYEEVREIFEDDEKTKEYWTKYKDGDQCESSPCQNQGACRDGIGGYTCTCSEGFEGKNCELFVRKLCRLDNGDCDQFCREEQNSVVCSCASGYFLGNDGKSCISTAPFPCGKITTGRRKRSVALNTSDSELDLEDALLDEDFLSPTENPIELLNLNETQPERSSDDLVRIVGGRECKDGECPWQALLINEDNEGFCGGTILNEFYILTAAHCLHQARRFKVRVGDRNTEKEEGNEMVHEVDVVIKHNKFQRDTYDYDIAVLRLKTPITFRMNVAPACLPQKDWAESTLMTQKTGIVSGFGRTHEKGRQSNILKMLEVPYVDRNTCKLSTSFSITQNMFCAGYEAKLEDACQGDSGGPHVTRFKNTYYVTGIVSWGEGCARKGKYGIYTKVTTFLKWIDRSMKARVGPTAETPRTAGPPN
Chain of Ixolaris, 12 kDa two-Kunitz domain protein isolated from tick salivary gland (Q964Q0 27-165 limits assumed): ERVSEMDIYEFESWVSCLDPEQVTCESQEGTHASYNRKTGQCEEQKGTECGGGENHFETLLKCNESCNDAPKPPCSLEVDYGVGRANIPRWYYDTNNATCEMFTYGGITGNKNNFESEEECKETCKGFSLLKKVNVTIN
Chain of human coagulation factor X (FX), full-length zymogen (human) (P00742 41-488 limits assumed): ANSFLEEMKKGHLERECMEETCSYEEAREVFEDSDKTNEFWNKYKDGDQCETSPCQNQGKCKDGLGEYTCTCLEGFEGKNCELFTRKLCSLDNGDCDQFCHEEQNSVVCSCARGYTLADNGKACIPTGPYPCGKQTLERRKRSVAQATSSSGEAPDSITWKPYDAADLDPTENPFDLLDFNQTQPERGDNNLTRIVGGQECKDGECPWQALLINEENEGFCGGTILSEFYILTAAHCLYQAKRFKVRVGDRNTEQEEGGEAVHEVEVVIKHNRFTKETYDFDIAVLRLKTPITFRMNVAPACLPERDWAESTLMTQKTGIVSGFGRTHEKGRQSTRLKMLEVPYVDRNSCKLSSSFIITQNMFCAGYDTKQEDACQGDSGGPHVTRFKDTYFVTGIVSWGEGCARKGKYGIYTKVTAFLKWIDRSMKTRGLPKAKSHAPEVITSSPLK

Turning to “nematode anticoagulant peptide-2 (NAPc2)”, in test [1], the Kd was 0.0728 nM, the koff was determined as 0.000623 s⁻¹ and the kon turned out to be 8.6e+06 M⁻¹ s⁻¹. In test [2], the Kd worked out at 17 nM, the koff amounted to 0.31 s⁻¹ and the kon turned out to be 1.8e+07 M⁻¹ s⁻¹.

Consider “Ixolaris, 12 kDa two-Kunitz domain protein isolated from tick salivary gland (from UniProt Q964Q0 27-165) (other; other documents disagree on this pair)”, for which, in test [3], the Kd was found to be 1.3 nM, the koff was 0.000175 s⁻¹ and the kon stood at 135000 M⁻¹ s⁻¹.

What is called Kd is the concentration at which binding is half-saturated. A higher Kd goes with lower affinity. By koff is commonly meant the rate constant with which the complex falls apart. Broadly, the kon is a measure of how fast the partners come together. A higher kon goes with faster complex formation.
